Source: publication PMC12603276

Target: MORC2 (UniProt Q9Y6X9)
Experiment: co-IP of Flag-rPGK1, immunoblot
Conditions: reference: WT Flag-rPGK1; sites S256

binding against the reference: lost
Substance: PGK1 (from UniProt P00558) Flag-rPGK1 S256A
